# Experimental data: paper PMC10953399, “Escherichia coli DNA repair helicase Lhr is also a uracil‐DNA glycosylase”
# B1: Cy5-ssDNA (EMSA) (ssDNA)
# DNA: TCGGATCCTCTAGACAGCTCCATGATCACTGGCACTGGTAGAATTCGGC
# Target: LhrD1536A (Escherichia coli MG1655, UniProt P30015 1-1538, D1536A)
# Test: EMSA; 5 mM EDTA; 12.5-200 nM protein, 12.5 nM DNA; similar to Lhr; 20 mM Tris pH 7.5, 10% glycerol, 100 ug/mL BSA, 25 mM DTT, 5 mM EDTA, 12.5 nM Cy5-DNA; 37 C 20 min then ice 10 min; 5% acrylamide TBE gel
# Details: protein: recombinant; tags: His6; label: 5' Cy5; single strand
binder,measurement,value
B1,binding result,binds
